Paper PMC3328465

Legend:
CT-SBP2 (human) = assay: EMSA; settings: EMSA: 20 fmol RNA in 20 uL, 1x PBS, glycerol, 250 ug yeast tRNA, 10 mM DTT, 5 ug soybean trypsin inhibitor, 37 C 30 min, 4% native PAGE; pH not stated
CT-SBP2L (human) = assay: EMSA; settings: EMSA: 20 fmol RNA in 20 uL, 1x PBS, glycerol, 250 ug yeast tRNA, 10 mM DTT, 5 ug soybean trypsin inhibitor, 37 C 30 min, 4% native PAGE; pH not stated

## DIO1 SECIS
CT-SBP2 (human)
  Kd: 0.0027 µM
CT-SBP2L (human)
  Kd: 0.0199 µM

## DIO2 SECIS
CT-SBP2 (human)
  Kd: 0.0068 µM
CT-SBP2L (human)
  Kd: 0.0713 µM

## DIO3 SECIS
CT-SBP2 (human)
  Kd: 0.0054 µM
CT-SBP2L (human)
  Kd: 0.0557 µM

## GPX1 SECIS
CT-SBP2 (human)
  Kd: 0.0063 µM
CT-SBP2L (human)
  Kd: 0.112 µM

## GPX2 SECIS
CT-SBP2 (human)
  Kd: 0.0109 µM
CT-SBP2L (human)
  Kd: 0.135 µM

## GPX3 SECIS
CT-SBP2 (human)
  Kd: 0.025 µM
CT-SBP2L (human)
  Kd: 0.135 µM

## GPX4 SECIS
CT-SBP2 (human)
  Kd: 0.0132 µM
CT-SBP2L (human)
  Kd: 0.0582 µM

## GPX6 SECIS
CT-SBP2 (human)
  Kd: 0.15 µM
CT-SBP2L (human)
  Kd: 0.313 µM

## SEP15 SECIS
CT-SBP2 (human)
  Kd: 0.005 µM
CT-SBP2L (human)
  Kd: 0.0529 µM

## SPS2 SECIS
CT-SBP2 (human)
  Kd: 0.0075 µM
CT-SBP2L (human)
  Kd: 0.129 µM

## SelH SECIS
CT-SBP2 (human)
  Kd: 0.0047 µM
CT-SBP2L (human)
  Kd: 0.102 µM

## SelI SECIS
CT-SBP2 (human)
  Kd: 0.0122 µM
CT-SBP2L (human)
  Kd: 0.0592 µM

## SelK SECIS
CT-SBP2 (human)
  Kd: 0.0036 µM
CT-SBP2L (human)
  Kd: 0.0329 µM

## SelM SECIS
CT-SBP2 (human)
  Kd: 0.003 µM
CT-SBP2L (human)
  Kd: 0.0234 µM

## SelN SECIS
CT-SBP2 (human)
  Kd: 0.0105 µM
CT-SBP2L (human)
  Kd: 0.089 µM

## SelO SECIS
CT-SBP2 (human)
  Kd: 0.007 µM
CT-SBP2L (human)
  Kd: 0.0587 µM

## SelP SECIS 1
CT-SBP2 (human)
  Kd: 0.0034 µM
CT-SBP2L (human)
  Kd: 0.0592 µM

## SelP SECIS 2
CT-SBP2 (human)
  Kd: 0.0016 µM
CT-SBP2L (human)
  Kd: 0.0276 µM

## SelR SECIS
CT-SBP2 (human)
  Kd: 0.0097 µM
CT-SBP2L (human)
  Kd: 0.196 µM

## SelS SECIS
CT-SBP2 (human)
  Kd: 0.0259 µM
CT-SBP2L (human)
  Kd: 0.093 µM

## SelT SECIS
CT-SBP2 (human)
  Kd: 0.004 µM
CT-SBP2L (human)
  Kd: 0.102 µM

## SelV SECIS
CT-SBP2 (human)
  Kd: 0.0067 µM
CT-SBP2L (human)
  Kd: 0.0124 µM

## SelW SECIS
CT-SBP2 (human)
  Kd: 0.004 µM
CT-SBP2L (human)
  Kd: 0.0877 µM

## TR1 SECIS
CT-SBP2 (human)
  Kd: 0.0058 µM
CT-SBP2L (human)
  Kd: 0.0206 µM

## TR2 SECIS
CT-SBP2 (human)
  Kd: 0.0116 µM
CT-SBP2L (human)
  Kd: 0.0544 µM

## TR3 SECIS
CT-SBP2 (human)
  Kd: 0.0042 µM
CT-SBP2L (human)
  Kd: 0.115 µM
